# Assay results as given in the Human Domainome abundance scans (Beltran et al. 2025).
# ± gives the uncertainty stated by the source.
# B1: Androgen receptor, residues 557 to 632; numbered along this chain, P10275 (parent)
# chain: QKTCLICGDEASGCHYGALTCGSCKVFFKRAAEGKQKYLCASRNDCTIDKFRRKNCPSCRLRKCYEAGMTLGARKL
# Variants of: B1
# Assay: abundance fitness (aPCA) (normalised: wild type 0, dead -1); higher = more abundant; growth selection in yeast, the domain comes from the species named
# Settings: Homo sapiens
row,Variant,abundance fitness
1,A18E,-0.617 ± 0.074
2,N44E,-0.031 ± 0.056
3,N44L,-0.251 ± 0.059
4,N44R,-0.258 ± 0.044
5,L19N,-0.065 ± 0.057
6,L19G,-0.399 ± 0.044
7,L19E,0.034 ± 0.043
8,L19T,-0.017 ± 0.13
9,L19P,-0.106 ± 0.23
10,L19Y,-0.101 ± 0.081
11,L19C,-0.19 ± 0.16
12,R74W,-0.19 ± 0.081
13,R74L,-0.18 ± 0.089
14,R74H,-0.036 ± 0.12
15,G17P,-0.691 ± 0.092
16,G17R,-0.33 ± 0.032
17,K35Q,0.007 ± 0.068
18,K35D,-0.118 ± 0.083
19,K35I,-0.09 ± 0.058
20,K35Y,-0.034 ± 0.069
21,K35P,0.074 ± 0.068
22,V26H,0.039 ± 0.071
23,V26C,-0.012 ± 0.058
24,V26A,-0.108 ± 0.12

row,Variant,abundance fitness
1,C40Y,-1.13 ± 0.39
2,C40T,-0.554 ± 0.22
3,C40G,-0.891 ± 0.092
4,A41E,-0.079 ± 0.13
5,A41S,-0.041 ± 0.071
6,A41W,-0.187 ± 0.11
7,R30V,-0.066 ± 0.065
8,R30F,0.03 ± 0.052
9,Q1D,0.071 ± 0.14
10,C46K,-0.735 ± 0.12
11,C46V,-0.942 ± 0.088
12,C46N,-0.711 ± 0.14
13,G22R,-0.166 ± 0.047
14,G22E,0.064 ± 0.062
15,L71E,-0.114 ± 0.15
16,L71P,-0.15 ± 0.075
17,L71H,-0.164 ± 0.084
18,L71Q,-0.043 ± 0.1
19,K25V,-0.043 ± 0.023
20,K25H,-0.011 ± 0.035
21,G68D,-0.581 ± 0.47
22,D45F,-0.498 ± 0.24
23,D45A,-0.094 ± 0.074
24,H15Y,-0.237 ± 0.16

row,Variant,abundance fitness
1,H15D,-0.177 ± 0.13
2,H15V,-0.182 ± 0.075
3,K50T,-0.068 ± 0.18
4,K50G,-0.146 ± 0.057
5,K50R,-0.068 ± 0.073
6,K50V,-0.063 ± 0.069
7,K50C,-0.103 ± 0.27
8,Y38G,-0.222 ± 0.064
9,Y38L,-0.046 ± 0.049
10,Y38P,-0.007 ± 0.063
11,Y38V,-0.092 ± 0.063
12,T47F,-0.077 ± 0.039
13,T47R,-0.108 ± 0.031
14,T47L,-0.041 ± 0.029
15,L39Q,0.011 ± 0.041
16,Y65F,-0.056 ± 0.1
17,Y65Q,-0.037 ± 0.14
18,Y65C,0.036 ± 0.11
19,Y65S,-0.208 ± 0.075
20,Y16H,-0.333 ± 0.21
21,Y16R,-0.684 ± 0.043
22,Y16N,-0.307 ± 0.12
23,Y16D,-0.355 ± 0.097
24,F27I,-0.548 ± 0.12

row,Variant,abundance fitness
1,F27P,-0.655 ± 0.067
2,I48C,-0.585 ± 0.068
3,C56I,-0.782 ± 0.22
4,C56A,-0.533 ± 0.18
5,C56V,-1.15 ± 0.31
6,C56F,-0.938 ± 0.22
7,C56S,-0.776 ± 0.12
8,A73W,-0.203 ± 0.071
9,A73C,-0.297 ± 0.12
10,A73G,-0.06 ± 0.06
11,A73F,-0.326 ± 0.12
12,C24S,-1.1 ± 0.072
13,C24W,-0.903 ± 0.059
14,C24I,-0.904 ± 0.076
15,C24E,-0.909 ± 0.063
16,C24L,-0.898 ± 0.046
17,L5H,-0.137 ± 0.069
18,C7G,-0.874 ± 0.15
19,C7E,-1.03 ± 0.39
20,G72K,-0.134 ± 0.14
21,G72D,0.098 ± 0.11
22,G72F,0.06 ± 0.11
23,G72A,-0.011 ± 0.075
24,C64G,-0.606 ± 0.11

row,Variant,abundance fitness
1,C64M,-0.125 ± 0.12
2,C64F,-0.745 ± 0.48
3,G13R,-0.2 ± 0.061
4,C14G,-0.11 ± 0.054
5,Q36A,-0.019 ± 0.047
6,Q36F,-0.156 ± 0.066
7,Q36M,-0.084 ± 0.064
8,Q36N,-0.134 ± 0.075
9,P57M,-0.09 ± 0.1
10,P57T,-0.111 ± 0.079
11,P57F,-0.024 ± 0.069
12,K63N,-0.127 ± 0.1
13,K63Q,-0.084 ± 0.11
14,K63T,-0.033 ± 0.068
15,K63W,-0.482 ± 0.19
16,R52L,-0.044 ± 0.052
17,R52N,-0.072 ± 0.069
18,R52Y,-0.09 ± 0.068
19,A32R,-0.155 ± 0.043
20,A32Y,-0.145 ± 0.065
21,A31H,-0.102 ± 0.079
22,A31Q,-0.075 ± 0.062
23,A31C,-0.072 ± 0.062
24,A31M,-0.182 ± 0.082

row,Variant,abundance fitness
1,A31K,-0.627 ± 0.18
2,N55K,0.044 ± 0.077
3,N55V,-0.151 ± 0.086
4,N55C,-0.075 ± 0.14
5,N55T,-0.012 ± 0.065
6,N55P,-0.099 ± 0.074
7,G8A,0.009 ± 0.067
8,S58I,-0.577 ± 0.098
9,S58G,0.059 ± 0.071
10,S58C,0.075 ± 0.081
11,S58K,-0.125 ± 0.097
12,S58V,-0.16 ± 0.085
13,S58E,0.133 ± 0.12
14,S12R,-0.06 ± 0.046
15,S12W,-0.181 ± 0.085
16,C4K,-0.87 ± 0.32
17,C4M,-0.679 ± 0.37
18,D49L,-0.502 ± 0.14
19,D49N,-0.188 ± 0.12
20,D49E,-0.066 ± 0.089
21,K37T,0.01 ± 0.077
22,K37M,-0.131 ± 0.1
23,T3E,-0.148 ± 0.096
24,T3W,-0.115 ± 0.087

row,Variant,abundance fitness
1,T3G,-0.078 ± 0.06
2,T3L,-0.035 ± 0.075
3,T3K,-0.252 ± 0.1
4,E33V,-0.089 ± 0.044
5,E33G,0.044 ± 0.042
6,E33F,-0.343 ± 0.069
7,E33I,0.03 ± 0.062
8,E33Y,-0.187 ± 0.064
9,K29Q,-0.169 ± 0.11
10,K29W,0.035 ± 0.15
11,K29N,-0.123 ± 0.14
12,T20P,-0.724 ± 0.09
13,T20S,0.047 ± 0.046
14,T20G,-0.539 ± 0.042
15,T20M,-1 ± 0.18
16,G34D,-0.372 ± 0.49
17,S23A,-0.163 ± 0.037
18,S23C,-0.185 ± 0.076
19,S23Q,-0.084 ± 0.042
20,D9Y,-0.609 ± 0.4
21,D9N,-0.008 ± 0.1
22,D9I,-0.109 ± 0.13
23,D9F,-0.562 ± 0.21
